Molecular target: citrullinated fibronectin N-terminal 30 kDa fragment (treated with PAD2 or PAD4)
Test: ELISA; FN N-terminal 30 kDa fragment coated o/n on 96-well DNA-BIND plates (3 µg/cm^3, +4 °C), blocked with BSA, citrullinated on the plate by PAD2 or PAD4 (2.4 U/ml, o/n, +37 °C) or left as control; integrin αVβ3 5 µg/ml for 1 h at room temperature in Delfia assay buffer; detected with anti-αV antibody L230 and Eu-labelled anti-mouse antibody, time-resolved fluorescence; BSA wells as background

reduction of binding against the control FN fragment: > 50%
Substance: recombinant integrin αVβ3 ectodomain (from UniProt P06756 31-992; P05106 27-718) (receptor)
